The labels stand for the following.
B1: Azoarcus group I ribozyme (parent)
chain: GUGCCUUGCGCCGGGAAACCACGCAAGGGAUGGUGUCAAAUUCGGCGAAACCUAAGCGCCCGCCCGGGCGUAUGGCAACGCCGAGCCAAGCUUCGGCGCCUGCGCCGAUGAAGGUGUAGAGACUAGACGGCACCCACCUAAGGCAAACGCUAUGGUGAAGGCAUAGUCCAGGGAGUGGCGAAAGUCACACAAACCGG

This data set covers variants of B1. The data set is described as follows: reverse-splicing fitness (ratio to wild type); higher = more active; in vitro selection; Mg2+ level not given. The procedure, abridged:
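An in vitro group I ribozyme library with randomized positions was T7-transcribed and gel-purified. In triplicate, 10 pmol RNA in EPPS pH 7.5 was reacted with 50 pmoles of a 30-nt RNA substrate for 1 h at 37 °C across several added MgCl2 levels (1–48 mM), then stopped with EDTA. Products were reverse transcribed from a substrate-complementary primer, PCR-amplified and sequenced (HiSeq 4000). Fitness is a variant's read proportion after selection over that before, normalised to wild type.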
On to GUGCCUUGCGCCGGGAAACCACGCAAGGGAUGGUGUCAAAUUCGGCGAAACCUAAGCGCCCGCCCGGGCGUAUGGCAACGCCGAGCCAAGCUUCGGCGCCUGCGCCGAUGAAGGUGUAGCGACUAGACGGCACCCACCUAAGGCGAACGUUAUGGUGAAGGCAUAGUCCAGGGAGCGGCGAAAGUCACACAAACCGG [A120C A145G C150U U176C], for which the reverse-splicing fitness was 0.566.

Consider GUGCCUUGCGCCGGGAAACCACGCAAGGGAUGGUGUCAAAUUCGGCGAAACCUAAGCGCCCGCCCGGGCGUAUGGCAACGCCGAGCCAAGCUUCGGCGCCUGCGCCGAUGAAGGUGUAGCGACUAGACGGCACCCACCUAAGGCGAACGCUAUGGUGAAGGCAUAGUCUAGGGAGGGGCGAAAGUCACACAAACCGG [A120C A145G C169U U176G], for which the reverse-splicing fitness worked out at 0.015.

Consider GUGCCUUGCGCCGGGAAACCACGCAAGGGAUGGUGUCAAAUUCGGCGAAACCUAAGCGCCCGCCCGGGCGUAUGGCAACGCCGAGCCAAGCUUCGGCGCCUGCGCCGAUGAAGGUGUAGCGACUAGACGGCACCCACCUAAGGCGAACGCUAUGGUGAAGGCAUAGUCUAGGGAGAGGCGAAAGUCACACAAACCGG [A120C A145G C169U U176A], for which the reverse-splicing fitness was found to be 0.153.

Consider GUGCCUUGCGCCGGGAAACCACGCAAGGGAUGGUGUCAAAUUCGGCGAAACCUAAGCGCCCGCCCGGGCGUAUGGCAACGCCGAGCCAAGCUUCGGCGCCUGCGCCGAUGAAGGUGUAGCGACUAGACGGCACCCACCUAAGGCGAACGCUAUGGUGAAGGCAUAGUCUAGGGAGCGGCGAAAGUCACACAAACCGG [A120C A145G C169U U176C], for which the reverse-splicing fitness came to 0.185.

For GUGCCUUGCGCCGGGAAACCACGCAAGGGAUGGUGUCAAAUUCGGCGAAACCUAAGCGCCCGCCCGGGCGUAUGGCAACGCCGAGCCAAGCUUCGGCGCCUGCGCCGAUGAAGGUGUAGCGACUAGACGGCACCCACCUAAGGCUAACGAUAUGGUGAAGGCAUAGUCGAGGGAGGGGCGAAAGUCACACAAACCGG [A120C A145U C150A C169G U176G], the reverse-splicing fitness worked out at 0.00376.

On to GUGCCUUGCGCCGGGAAACCACGCAAGGGAUGGUGUCAAAUUCGGCGAAACCUAAGCGCCCGCCCGGGCGUAUGGCAACGCCGAGCCAAGCUUCGGCGCCUGCGCCGAUGAAGGUGUAGCGACUAGACGGCACCCACCUAAGGCUAACGAUAUGGUGAAGGCAUAGUCGAGGGAGAGGCGAAAGUCACACAAACCGG [A120C A145U C150A C169G U176A], for which the reverse-splicing fitness came out at 0.00974.

On to GUGCCUUGCGCCGGGAAACCACGCAAGGGAUGGUGUCAAAUUCGGCGAAACCUAAGCGCCCGCCCGGGCGUAUGGCAACGCCGAGCCAAGCUUCGGCGCCUGCGCCGAUGAAGGUGUAGCGACUAGACGGCACCCACCUAAGGCUAACGAUAUGGUGAAGGCAUAGUCGAGGGAGCGGCGAAAGUCACACAAACCGG [A120C A145U C150A C169G U176C], for which the reverse-splicing fitness was determined as 0.0105.

For the variant GUGCCUUGCGCCGGGAAACCACGCAAGGGAUGGUGUCAAAUUCGGCGAAACCUAAGCGCCCGCCCGGGCGUAUGGCAACGCCGAGCCAAGCUUCGGCGCCUGCGCCGAUGAAGGUGUAGCGACUAGACGGCACCCACCUAAGGCUAACGCUAUGGUGAAGGCAUAGUCCAGGGAGUGGCGAAAGUCACACAAACCGG [A120C A145U], the reverse-splicing fitness is 0.886.

Turning to GUGCCUUGCGCCGGGAAACCACGCAAGGGAUGGUGUCAAAUUCGGCGAAACCUAAGCGCCCGCCCGGGCGUAUGGCAACGCCGAGCCAAGCUUCGGCGCCUGCGCCGAUGAAGGUGUAGCGACUAGACGGCACCCACCUAAGGCUAACGAUAUGGUGAAGGCAUAGUCAAGGGAGGGGCGAAAGUCACACAAACCGG [A120C A145U C150A C169A U176G], the reverse-splicing fitness came to 0.00377.

On to GUGCCUUGCGCCGGGAAACCACGCAAGGGAUGGUGUCAAAUUCGGCGAAACCUAAGCGCCCGCCCGGGCGUAUGGCAACGCCGAGCCAAGCUUCGGCGCCUGCGCCGAUGAAGGUGUAGCGACUAGACGGCACCCACCUAAGGCUAACGAUAUGGUGAAGGCAUAGUCAAGGGAGAGGCGAAAGUCACACAAACCGG [A120C A145U C150A C169A U176A], for which the reverse-splicing fitness is 0.0124.

For the variant GUGCCUUGCGCCGGGAAACCACGCAAGGGAUGGUGUCAAAUUCGGCGAAACCUAAGCGCCCGCCCGGGCGUAUGGCAACGCCGAGCCAAGCUUCGGCGCCUGCGCCGAUGAAGGUGUAGCGACUAGACGGCACCCACCUAAGGCUAACGAUAUGGUGAAGGCAUAGUCAAGGGAGCGGCGAAAGUCACACAAACCGG [A120C A145U C150A C169A U176C], the reverse-splicing fitness is 0.00632.

On to GUGCCUUGCGCCGGGAAACCACGCAAGGGAUGGUGUCAAAUUCGGCGAAACCUAAGCGCCCGCCCGGGCGUAUGGCAACGCCGAGCCAAGCUUCGGCGCCUGCGCCGAUGAAGGUGUAGCGACUAGACGGCACCCACCUAAGGCGAACGCUAUGGUGAAGGCAUAGUCAAGGGAGGGGCGAAAGUCACACAAACCGG [A120C A145G C169A U176G], for which the reverse-splicing fitness was found to be 0.00471.

Consider GUGCCUUGCGCCGGGAAACCACGCAAGGGAUGGUGUCAAAUUCGGCGAAACCUAAGCGCCCGCCCGGGCGUAUGGCAACGCCGAGCCAAGCUUCGGCGCCUGCGCCGAUGAAGGUGUAGCGACUAGACGGCACCCACCUAAGGCGAACGCUAUGGUGAAGGCAUAGUCAAGGGAGCGGCGAAAGUCACACAAACCGG [A120C A145G C169A U176C], for which the reverse-splicing fitness turned out to be 0.024.

For the variant GUGCCUUGCGCCGGGAAACCACGCAAGGGAUGGUGUCAAAUUCGGCGAAACCUAAGCGCCCGCCCGGGCGUAUGGCAACGCCGAGCCAAGCUUCGGCGCCUGCGCCGAUGAAGGUGUAGCGACUAGACGGCACCCACCUAAGGCGAACGCUAUGGUGAAGGCAUAGUCAAGGGAGAGGCGAAAGUCACACAAACCGG [A120C A145G C169A U176A], the reverse-splicing fitness was determined as 0.0215.

On to GUGCCUUGCGCCGGGAAACCACGCAAGGGAUGGUGUCAAAUUCGGCGAAACCUAAGCGCCCGCCCGGGCGUAUGGCAACGCCGAGCCAAGCUUCGGCGCCUGCGCCGAUGAAGGUGUAGCGACUAGACGGCACCCACCUAAGGCUAACGAUAUGGUGAAGGCAUAGUCCAGGGAGUGGCGAAAGUCACACAAACCGG [A120C A145U C150A], for which the reverse-splicing fitness came out at 0.215.

The values above are taken from the RNAGym collection of RNA variant scans (doi:10.1093/molbev/msab373).
